Entries after “also recorded” stand apart in the source; their conditions may differ.
What was measured:
[1] = Siu et al., AACR abstract CT116, 2017; cited from earlier work
advanced melanoma = conditions: combined with pembrolizumab; Phase II study; cited from earlier work
IDO2 = biological target: T1, IDO2 (Homo sapiens, UniProt Q6ZQW0); conditions: Pendergast et al., Cancer Research, 2017; cited from earlier work
T1 sequence (Q6ZQW0 1-407): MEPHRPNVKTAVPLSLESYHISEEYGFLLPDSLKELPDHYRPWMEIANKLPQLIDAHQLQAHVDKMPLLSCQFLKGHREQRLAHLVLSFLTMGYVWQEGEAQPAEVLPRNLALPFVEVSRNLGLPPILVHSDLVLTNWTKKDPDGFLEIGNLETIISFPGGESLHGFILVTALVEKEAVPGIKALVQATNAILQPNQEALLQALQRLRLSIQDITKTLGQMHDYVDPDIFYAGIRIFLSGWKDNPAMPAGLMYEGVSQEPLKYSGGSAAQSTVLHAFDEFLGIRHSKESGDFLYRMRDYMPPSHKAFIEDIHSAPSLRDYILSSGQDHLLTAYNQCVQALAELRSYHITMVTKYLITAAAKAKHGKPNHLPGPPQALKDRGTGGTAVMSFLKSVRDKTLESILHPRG

melanoma = conditions: epacadostat in combination with the PD-1 inhibitors pembrolizumab and nivolumab; Phase I/II; cited from earlier work
[2] = system: metastatic or recurrent squamous cell carcinoma of the head and neck, advanced urothelial cell carcinoma, and advanced renal cell carcinoma; conditions: epacadostat combination; cited from earlier work
4T1 tumors [3] = assay: Immunohistochemistry of 4T1 tumors for β-catenin, CD8 and IDO1; assay type: in vivo, Balb/C mice; conditions: IDOi orally twice daily 100 mg/kg per dose days 6 and 8, tumors 48 hours after last dose, vs vehicle
MMTV-Wnt tumors [4] = assay: Immunohistochemistry of MMTV-Wnt tumors for β-catenin, CD8 and IDO1; assay type: in vivo, mice; conditions: tumors 24 hours after last dose
Description: (§1) In the MMTV-Wnt mouse model, mammary gland specific overexpression of Wnt1 with MMTV-LTR leads to spontaneous breast tumors with activated Wnt/β-catenin signaling. MMTV-Wnt mammary tumors spontaneously grow in mice in 3-6 months from the time of birth with Wnt pathway activation.
To see the effect of β-catenin inhibition on T cell infiltration and IDO1 levels in spontaneous tumors, the MMTV-Wnt1 model was used. The tumors were collected 24 hours after the last dose and subjected to immunohistochemistry to determine β-catenin, CD8, and IDO1 levels.
Tumors were collected 24 hours after the last dose and subjected to immunohistochemistry to determine β-catenin, CD8 and IDO1 levels.

4T1 tumors [5] = assay: 4T1 tumor growth study; assay type: in vivo, Balb/C mice; conditions: for anti-tumor efficacy (tumor volume): IDOi orally 100 mg/kg per dose twice daily days 4 and 6, BCAT1 iv 3 mg/kg days 5 and 6, anti-PD-1 antibody ip 5 mg/kg days 7 and 8, single, double or triple agents
Description: (§2) 6-8-week-old immunocompetent mice (C57BL/6 or Balb/C) were injected subcutaneously with 1.5×10^6B16F10 or 1.5×10^6 4T1 tumor cells under the right shoulder. Tumor volume was measured every 2-3 days a week to monitor tumor growth. Dosing was initiated when the tumors reached about 150-200 mm^3. […] BCAT1 formulated LNP or Placebo (scrambled CTNNB1 dsRNAi) formulated LNP was given intravenously via lateral tail vein at a total volume of 10 ml/kg. Immunotherapy treatments (anti-PD-1 antibody) were given intraperitoneally at a volume of 10 ml/kg.
(§3) Mouse cell lines B16F10 and 4T1 cells were obtained from ATCC (Manassas, Va.) and grown in RPMI/DMEM medium supplemented with 10% FBS. B16F10 cells is a murine melanoma cell line with no Wnt activation or IDO1 activation. 4T1 is a murine breast cell line with Wnt activation and constitutive activation of IDO1.
In another study, 4T1 tumor cells were implanted in Balb/C mice and 4 days post-implant, the mice were randomized into two groups and treated with placebo or BCAT1. This dosing cycle was then repeated on days 9 and 10. Tumor growth was monitored by measuring the tumor sizes over the course of the treatment period. […] FIG. 1C.
(§4) Tumors were collected 48 hours after the last dose and were subjected to immunohistochemistry to look at β-catenin, CD8 and IDO1 levels. […] FIG. 3B. FIG. 3B. […] Tumor growth was monitored by measuring the tumor sizes over the course of the treatment period. […] FIG. 3C.

B16F10 tumors [6] = assay: Immunohistochemistry of B16F10 tumors for β-catenin, CD8 and IDO1; assay type: in vivo, C57BL/6 mice; conditions: IDOi orally twice daily 100 mg/kg per dose days 7 and 9, tumors 48 hours after last dose, vs vehicle
B16F10 tumors [7] = assay: B16F10 tumor growth study; assay type: in vivo, C57BL/6 mice
Description: as §2, §3
In a similar study, B16F10 tumor cells were implanted in C57BL/6 mice and at day 5 post-implant, the mice were randomized into two groups and treated with placebo or BCAT1. This dosing cycle was then repeated on days 11 and 12. Tumor growth was monitored by measuring the tumor sizes over the course of the treatment period. […] FIG. 6C.
Tumor growth was monitored by measuring the tumor sizes over the course of the treatment period. […] FIG. 8C. […]

IDO1 = IDO1 (Homo sapiens, UniProt P14902); conditions: cited from earlier work
MMTV-Wnt tumors [8] = assay: MMTV-Wnt tumor growth study; assay type: in vivo, mice
Description: as §1
In another study, MMTV-Wnt tumor-bearing mice were treated with BCAT1 at 3 mg/kg on study days 1, 2, 6, and 7 and tumor growth was monitored.

B16F10 tumors [9] = assay: Immunohistochemistry of B16F10 tumors for β-catenin, CD8 and IDO1; assay type: in vivo, C57BL/6 mice; conditions: BCAT1 3 mg/kg days 6, 7, 12, 13 post-implant, tumors 48 hours after last dose, vs placebo
Description: as §2, §3
C57BL/6 mice were implanted with B16F10 tumors. At six days post B16F10 tumor cell implantation, with the average tumor size of 200 mm^3, mice were sorted into two groups and were treated with either placebo or BCAT1 at 3 mg/kg on days 6 and 7 post-implant and again on days 12 and 13 post-implant, as shown in FIG. 6A. 48 hours after the last dose, tumors were collected and assayed by immunohistochemistry for β-catenin, CD8 and IDO1 protein levels. […] FIG. 6B.
Tumors were collected 48 hours after the last dose and were subjected to immunohistochemistry to analyze β-catenin, CD8 and IDO1 levels. […] FIG. 8B.

multiple tumor types = assay: Delivery of LNP formulated BCAT1 to tumors in models; assay type: in vivo
Excerpt: The BCAT1 construct was formulated in EnCore lipid nanoparticles (LNP).

B16F10 tumors [10] = assay: Flow cytometry of immune cell infiltrate in B16F10 tumors; assay type: in vivo, C57BL/6 mice; conditions: BCAT1 3 mg/kg days 6, 7, 12, 13, tumors 24 hours after last dose
Description: A similar study was run to monitor the levels of immune cell infiltrate after two rounds of BCAT1 treatment. B16F10 tumors were treated with PBS, placebo, or BCAT1 at 3 mg/kg on days 6 and 7 post-implant and again on days 12 and 13 post-implant, as shown in FIG. 7A. Tumors were collected 24 hours after the last dose and were subjected to flow cytometry. […] The MDSC cell population was not altered. FIG. 7B.

4T1 tumors [11] = assay: Immunohistochemistry of 4T1 tumors for β-catenin, CD8 and IDO1; assay type: in vivo, Balb/C mice; conditions: BCAT1 3 mg/kg days 6, 7, 12, 13 post-implant, tumors 48 hours after last dose, vs placebo
Description: as §2, §3
Balb/C mice were implanted with 4T1 tumors. At six days post 4T1 tumor cell implantation, with the average tumor size of 150-200 mm^3, mice were sorted into two groups and were treated with either placebo or BCAT1 at 3 mg/kg on days 6 and 7 and days 12 and 13 post-implant, as shown in FIG. 1A. 48 hours after the last dose, tumors were collected and assayed by immunohistochemistry for β-catenin, CD8 and IDO1 protein levels.
as §4

4T1 tumors [12] = assay: Flow cytometry of surface markers in 4T1 tumors; assay type: in vivo, Balb/C mice; conditions: BCAT1 3 mg/kg days 6, 7, 12, 13, tumors 24 hours after last dose, vs PBS
Description: In another similar study, mice bearing 4T1 tumors were treated with PBS or BCAT1 at 3 mg/kg on days 6 and 7 and days 12 and 13 post-implant, as shown in FIG. 2A. Tumors were collected 24 hours after the last dose and subjected to flow cytometry to measure surface markers on single-cell suspensions prepared from the extracted tumors. […] FIG. 2B. […] FIG. 2B. No effect was observed on the immunosuppressive MDSC cells. FIG. 2B.

[13] = IDOi 30 mg/kg per dose twice a day for 3 consecutive days
[14] = BCAT1 5 mg/kg per dose study days 1, 2, 3, 5 mg/kg

Sequence of IDO1 (P14902 whole entry, species assumed): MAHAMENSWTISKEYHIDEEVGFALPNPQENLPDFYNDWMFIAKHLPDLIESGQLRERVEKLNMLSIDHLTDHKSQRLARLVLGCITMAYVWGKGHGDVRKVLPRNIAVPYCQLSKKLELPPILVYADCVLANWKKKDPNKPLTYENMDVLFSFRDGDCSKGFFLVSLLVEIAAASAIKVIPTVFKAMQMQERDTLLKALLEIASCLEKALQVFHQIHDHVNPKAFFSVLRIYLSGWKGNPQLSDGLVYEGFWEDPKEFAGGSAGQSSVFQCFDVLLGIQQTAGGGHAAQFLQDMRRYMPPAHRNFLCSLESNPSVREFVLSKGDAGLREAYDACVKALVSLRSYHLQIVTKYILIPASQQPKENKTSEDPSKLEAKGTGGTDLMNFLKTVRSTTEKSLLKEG

C[C@@H](C(=O)Nc1ccc(Cl)cc1)C1CCC(c2ccnc3ccc(F)cc23)CC1 (some centres unmarked) [BMS-986205]
tolerability in patients with advanced cancers [1]: safely tolerated

Cn1cc(C[C@@H](N)C(=O)O)c2ccccc21 [indoximod, 1-methyl-D-tryptophan]
efficacy in patients with advanced melanoma (advanced melanoma): shown efficacy | inhibition of IDO2 (IDO2): indirectly inhibit IDO2

NS(=O)(=O)NCCNc1nonc1C(=NO)Nc1ccc(F)c(Br)c1 [IDOi, epacadostat]
clinical results in patients with melanoma (melanoma): positive early results | efficacy in other tumors [2]: shown efficacy | CD8 levels / CD8 T-cell infiltration (immunohistochemistry) (4T1 tumors [3]): only modestly altered; also recorded: increases | IDO1 levels (immunohistochemistry) (4T1 tumors [3]): reduced the IDO1 levels almost completely; also recorded: decreases | β-catenin levels (immunohistochemistry) (4T1 tumors [3]): only modestly altered; also recorded: decreases | CD8 levels (immunohistochemistry) (MMTV-Wnt tumors [4]; [13]): increases | IDO1 levels (immunohistochemistry) (MMTV-Wnt tumors [4]; [13]): reduced the IDO1 levels almost completely; also recorded: reduces | β-catenin levels (immunohistochemistry) (MMTV-Wnt tumors [4]; [13]): increases | tumor growth as compared to placebo (4T1 tumors [5]; IDOi alone twice daily at 100 mg/kg per day on days 6 and 8 post-implant, 100 mg/kg/day): tumor growth inhibition; also recorded: inhibits tumor growth | anti-tumor efficacy (tumor volume) (4T1 tumors [5]): modest anti-tumor efficacy | CD8 levels / CD8 T-cell infiltration (immunohistochemistry) (B16F10 tumors [6]): increases | IDO1 levels (immunohistochemistry) (B16F10 tumors [6]): reduced the IDO1 levels almost completely; also recorded: decreases | β-catenin levels (immunohistochemistry) (B16F10 tumors [6]): decreases | tumor growth inhibition vs vehicle (B16F10 tumors [7]; IDOi twice daily 100 mg/kg per dose days 7 and 9, 100 mg/kg): did not result in any significant tumor growth inhibition; also recorded: does not significantly inhibit tumor growth

O=C1CC(c2c[nH]c3ccc(F)cc23)C(=O)N1 (centres unmarked) [PF-06840003]
enzymes targeted / inhibited (IDO1, TDO) (IDO1): selectively target IDO1

B1: BCAT1: nucleic acid inhibitor molecule targeting the β-catenin gene; sense strand SEQ ID NO:1, antisense strand SEQ ID NO:2; formulated in EnCore lipid nanoparticles (nucleic acid)
sense: AGAAUACAAAUGAUGUAGAAACAGCC
antisense: UAGCUAUCGTGGCUGUUUCUACAUCAUUUGUAUUCUGC
modifications: formulated in lipid nanoparticles, chemistry not given here
tumor growth inhibition (MMTV-Wnt tumors [8]; BCAT1 alone 3 mg/kg study days 1, 2, 6, 7): about 50% | tumor growth as compared to placebo (MMTV-Wnt tumors [8]; two cycles of BCAT1 treatment): inhibits tumor growth | CD8 protein levels / CD8 T-cell infiltration (immunohistochemistry) (B16F10 tumors [9]): increases | IDO1 protein levels (immunohistochemistry) (B16F10 tumors [9]): decreased; also recorded: reduces | β-catenin protein levels (immunohistochemistry) (B16F10 tumors [9]): decreases | CD8 levels / CD8 T-cell infiltration (immunohistochemistry) (MMTV-Wnt tumors [4]; [14]): increases | IDO1 levels (immunohistochemistry) (MMTV-Wnt tumors [4]; [14]): unchanged; also recorded: does not significantly reduce | β-catenin levels (immunohistochemistry) (MMTV-Wnt tumors [4]; [14]): decreases | Delivery of BCAT1 to Various Tumor Types (multiple tumor types; HCT116, DLD1, HL60): Negative: HCT116, DLD1, HL60 | Delivery of BCAT1 to Various Tumor Types (multiple tumor types; LNP formulated BCAT1, tumor types of Table I (subcutaneous, orthotopic, disseminated, metastatic xenograft, PDX, GEM)): effectively deliver the nucleic acid payload to multiple tumor types | CD8 T cells, flow cytometry (B16F10 tumors [10]): elevated; also recorded: increases | LAG-3 checkpoint, flow cytometry (B16F10 tumors [10]): elevated; also recorded: increases | MDSC cell population, flow cytometry (B16F10 tumors [10]): not altered; also recorded: does not significantly alter | PD-1 checkpoint, flow cytometry (B16F10 tumors [10]): elevated; also recorded: increases | Tim-3 checkpoint, flow cytometry (B16F10 tumors [10]): elevated; also recorded: increases | level of Tregs, flow cytometry (B16F10 tumors [10]; as compared to PBS): did not significantly change; also recorded: does not significantly alter | tumor growth inhibition (4T1 tumors [5]; BCAT1 alone 3 mg/kg days 4, 5, 9, 10, vs placebo): about 40% | anti-tumor efficacy (tumor volume) (4T1 tumors [5]): modest anti-tumor efficacy | tumor growth as compared to placebo (4T1 tumors [5]; two cycles of BCAT1 treatment): inhibits tumor growth | CD8 protein levels / CD8 T-cell infiltration (immunohistochemistry) (4T1 tumors [11]): increases | IDO1 protein levels (immunohistochemistry) (4T1 tumors [11]): did not reduce the IDO1 levels significantly; also recorded: does not significantly reduce | β-catenin protein levels (immunohistochemistry) (4T1 tumors [11]): decreases | LAG-3 checkpoint, flow cytometry (4T1 tumors [12]): significant increases | MDSC cells, flow cytometry (4T1 tumors [12]): No effect; also recorded: does not significantly alter | PD-1 checkpoint, flow cytometry (4T1 tumors [12]): significant increases | Regulatory T cells (Tregs), flow cytometry (4T1 tumors [12]): significantly increased; also recorded: increases | Tim-3 checkpoint, flow cytometry (4T1 tumors [12]): significant increases | cytotoxic T-cells (CD8+), flow cytometry (4T1 tumors [12]): significant increases | tumor growth as compared to placebo (B16F10 tumors [7]; BCAT1 single agent 3 mg/kg days 5, 6, 11, 12): did not significantly inhibit tumor growth; also recorded: does not significantly inhibit tumor growth

— patent US11813280B2, “Reducing beta-catenin and IDO expression to potentiate immunotherapy” (Dicerna Pharmaceuticals, Inc., priority 2018, dated 2023)
